In experiment [1] the target is T1, human P-cadherin expressed on the cell surface (human, UniProt P22223 108-829).
T1 construct: also called SW480-huPcad; CHO-huPcad
Nature of the experiment: cell ELISA, H1650 cells. Background: In an ELISA, binding on a coated surface is turned into a signal by an enzyme label.

The target of another experiment is T2, huP-cad-ECD (human, UniProt P22223 108-654).
T2 construct: extracellular domain; also called recombinant human P-cadherin; human P-cadherin-ECD
The experiment in a line: ELISA, recombinant protein.

For a further experiment, the target named is T3, huP-cad-ECD biotinylated (human, UniProt P22223 108-654, biotinylated (sites not given)).
T3 construct: extracellular domain
T3 sequence (P22223 108-654): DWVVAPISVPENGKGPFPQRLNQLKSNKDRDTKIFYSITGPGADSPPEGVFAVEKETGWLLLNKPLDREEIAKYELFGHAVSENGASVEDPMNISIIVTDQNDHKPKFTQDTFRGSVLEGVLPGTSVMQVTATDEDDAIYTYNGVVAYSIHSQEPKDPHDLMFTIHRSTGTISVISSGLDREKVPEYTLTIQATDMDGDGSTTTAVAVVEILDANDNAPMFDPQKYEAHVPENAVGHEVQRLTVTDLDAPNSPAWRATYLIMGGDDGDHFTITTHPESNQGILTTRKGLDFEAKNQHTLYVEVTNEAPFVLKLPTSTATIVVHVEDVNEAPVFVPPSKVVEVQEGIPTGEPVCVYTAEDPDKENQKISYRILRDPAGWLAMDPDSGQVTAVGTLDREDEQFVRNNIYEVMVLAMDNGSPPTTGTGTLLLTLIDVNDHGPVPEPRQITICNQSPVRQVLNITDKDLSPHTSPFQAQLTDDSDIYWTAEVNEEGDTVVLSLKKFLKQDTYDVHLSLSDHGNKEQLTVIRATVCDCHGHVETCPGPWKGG
Nature of the experiment: ELISA, recombinant protein.

For a further experiment, the target named is T4, muP-cad-ECD (murine, UniProt P10287 100-647).
T4 construct: extracellular domain; also called murine P-cadherin; murine P-cadherin ECD
T4 sequence (looked up): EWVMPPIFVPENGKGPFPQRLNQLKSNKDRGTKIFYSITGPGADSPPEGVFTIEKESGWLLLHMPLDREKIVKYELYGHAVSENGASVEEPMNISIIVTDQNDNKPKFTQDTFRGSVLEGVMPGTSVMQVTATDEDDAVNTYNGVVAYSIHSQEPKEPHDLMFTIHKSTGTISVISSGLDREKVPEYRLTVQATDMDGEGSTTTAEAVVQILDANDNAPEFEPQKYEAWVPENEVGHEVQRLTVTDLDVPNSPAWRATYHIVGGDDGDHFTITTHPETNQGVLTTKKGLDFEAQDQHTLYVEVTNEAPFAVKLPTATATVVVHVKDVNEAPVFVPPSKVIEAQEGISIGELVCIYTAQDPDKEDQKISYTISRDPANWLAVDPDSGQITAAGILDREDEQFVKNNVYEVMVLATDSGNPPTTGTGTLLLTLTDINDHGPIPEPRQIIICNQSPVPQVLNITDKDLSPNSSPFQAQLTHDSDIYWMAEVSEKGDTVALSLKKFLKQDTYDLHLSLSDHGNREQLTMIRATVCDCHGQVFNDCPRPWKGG
Nature of the experiment: ELISA, recombinant protein.

Experiment [2] deals with T1, human P-cadherin expressed on the cell …. Nature of the experiment: cell ELISA, CHO-huPcad cells.
The target is the same in experiment [3]. Nature of the experiment: cell ELISA, SW480-huPcad cells.
The target of experiment [4] is T5, cynomolgus monkey P-cadherin ECD (cynomolgus monkey).
T5 construct: extracellular domain; also called cyno P-cadherin ECD; Cyno P-cadherin
The experiment in a line: SPR. A general note: Surface plasmon resonance follows binding to a sensor surface in real time, without labels.

Another experiment has as its target T6, Hu P-cadherin-Fc (human, UniProt P22223 108-654, limits assumed).
T6 construct: also called recombinant human P-cadherin-Fc; human P-cadherin-Fc; not shown: Fc
Nature of the experiment: ELISA.

The target of experiment [5] is T5, cynomolgus monkey P-cadherin ECD. Nature of the experiment: SPR Biacore. The procedure:
(§1) Binding affinity of EK-DART proteins to P-cadherin and CD3 was analyzed by SPR using a BIACORE® 3000 biosensor (GE Healthcare). The antigens huCD3εδ and either human P-cadherin-Fc or human/cynomolgus monkey/murine P-cadherin-ECD were immobilized on the CM-5 sensor chip by amine coupling kit as recommended by the manufacturer. […] All EK-DART proteins in Tables 15 and 16 comprise CD3-2.
All EK-DART proteins in Table 17 comprise CD3-2.

The target in experiment [6] is T1, human P-cadherin expressed on the cell …. Nature of the experiment: cell-based or functional assay.
Experiment [7] shares this target. Nature of the experiment: cell ELISA, H1650 cells. The source holds these as a separate data set.
Experiment [8] concerns the target T5, cynomolgus monkey P-cadherin ECD. Nature of the experiment: SPR Biacore 3000, antigen immobilised. The procedure:
as §1

The text below walks through data of US20160002357A1 (Pfizer, published 2016).

T1 sequence (P22223 108-829): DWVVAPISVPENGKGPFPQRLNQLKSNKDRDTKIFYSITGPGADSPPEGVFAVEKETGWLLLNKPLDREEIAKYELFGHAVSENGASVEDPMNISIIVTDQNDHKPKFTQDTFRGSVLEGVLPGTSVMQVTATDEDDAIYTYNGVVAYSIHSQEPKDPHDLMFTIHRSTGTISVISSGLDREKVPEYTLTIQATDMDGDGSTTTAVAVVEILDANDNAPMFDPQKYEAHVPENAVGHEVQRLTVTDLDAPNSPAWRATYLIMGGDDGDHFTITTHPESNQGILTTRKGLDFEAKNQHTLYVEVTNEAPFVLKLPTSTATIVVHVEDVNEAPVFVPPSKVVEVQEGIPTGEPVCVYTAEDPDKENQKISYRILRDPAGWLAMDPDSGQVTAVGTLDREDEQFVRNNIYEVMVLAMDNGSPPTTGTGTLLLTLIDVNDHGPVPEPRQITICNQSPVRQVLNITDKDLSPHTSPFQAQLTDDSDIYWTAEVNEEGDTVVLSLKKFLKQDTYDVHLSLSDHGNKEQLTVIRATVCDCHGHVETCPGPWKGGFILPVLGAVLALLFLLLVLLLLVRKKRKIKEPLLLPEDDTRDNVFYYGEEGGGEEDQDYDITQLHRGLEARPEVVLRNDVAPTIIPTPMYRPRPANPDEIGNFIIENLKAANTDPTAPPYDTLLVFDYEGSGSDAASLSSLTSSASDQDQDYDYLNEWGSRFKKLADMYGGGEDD
T2 sequence (P22223 108-654): as the sequence (P22223 108-654) above
T6 sequence (P22223 108-654 limits assumed): as the sequence (P22223 108-654) above

B1: 35 scFv-Fc (Fc fusion)
VH: EVQLVQSGAEVKKPGASVKVSCKASGYTFTSYGISWVRQAPGQGLEWMGWISAYNGNTNYAQKLQGRVTMTTDTSTSTAYMELRSLRSDDTAVYYCATIDTASAFDIWGQGTMVTVSS
VL: QSVLTQPPSVSAAPGQKVTISCSGSSSNIGNNYVSWYQQLPGTAPKLLIYDNNKRPSGIPDRFSGSKSGTSATLGITGLQTGDEADYYCGTWDSSLSAVVFGGGTKLTVL
notes: also called P-CAD 35; P-cadherin clone 35 scFv-Fc
The EC50 is the concentration needed to bring the measured effect to its halfway point. As for B1, the EC50 was found to be 0.163 nM in [1]; 2.5 nM with huP-cad-ECD; 0.0176 nM with huP-cad-ECD biotinylated; 0.276 nM in experiment [2]; 0.173 nM in experiment [3]. Besides, the binding result with muP-cad-ECD is on record as “no binding”.

B2: 34 scFv-Fc (Fc fusion)
VH: EVQLVQSGAEVKKPGASVKVSCKASGYTFTSYGISWVRQAPGQGLEWMGWISAYNGNTNYAQKLQGRVTMTTDTSTSTAYMELRSLRSDDTAVYYCATIDTASAFDIWGQGTMVTVSS
VL: QSVVTQPPSVSAAPGQKVTISCSGSSSNIGNNYVSWYQQLPGTAPKLLIYDNNKRPSGIPDRFSGSKSGTSATLGITGLQTGDEADYYCGTWDSSLSAWVFGGGTKLTVL
notes: also called P-CAD 34; P-cadherin clone 34 scFv-Fc
In the case of B2, the concentration for a half-maximal effect (EC50) in [1] was 0.494 nM; with huP-cad-ECD it was 11.2 nM; with huP-cad-ECD biotinylated, 0.194 nM; in [2] it was 0.394 nM; in experiment [3], 0.442 nM. For the same molecule, the binding result in the experiment with muP-cad-ECD is reported as “no binding”.

B3: 33 scFv-Fc (Fc fusion)
VH: QMQLVQSGAEVKKPGASVKVSCKASGYTFTSYGISWVRQAPGQGLEWMGWISAYNGNTNYAQKLQGRVTMTTDTSTSTAYMELRSLRSDDTAVYYCALIGSGVAFDIWGQGTMVTVSS
VL: QSVLTQPPSVSAAPGQKVTISCSGSSSNIGNNYVSWYQQLPGTAPKLLIYDNNKRPSGIPDRFSGSKSGTSATLGITGLQTGDEADYYCGTWDSSLSAYVFGTGTKVTVL
notes: also called P-CAD 33; P-cadherin clone 33 scFv-Fc
Consider B3, for which the EC50 in experiment [1] worked out at 0.567 nM; with huP-cad-ECD, 3.46 nM; with huP-cad-ECD biotinylated it was 0.101 nM; in experiment [2], 0.493 nM; in [3], 0.424 nM. In the experiment with muP-cad-ECD, the binding result is on record as “no binding”.

B4: 35 EK-DART (bispecific antibody)
chain 1: QSVLTQPPSVSAAPGQKVTISCSGSSSNIGNNYVSWYQQLPGTAPKLLIYDNNKRPSGIPDRFSGSKSGTSATLGITGLQTGDEADYYCGTWDSSLSAVVFGGGTKLTVLGGGSGGGGEVQLVESGGGLVQPGGSLRLSCAASGFTFNTYAMNWVRQAPGKGLEWVARIRSKYNNYATYYADSVKDRFTISRDDSKNSLYLQMNSLKTEDTAVYYCVRHGNFGNSYVSWFAYWGQGTLVTVSSGGCGGGKVAALKEKVAALKEKVAALKEKVAALKE
chain 2: QAVVTQEPSLTVSPGGTVTLTCRSSTGAVTTSNYANWVQQKPGQAPRGLIGGTNKRAPWTPARFSGSLLGGKAALTITGAQAEDEADYYCALWYSNLWVFGGGTKLTVLGGGGSGGGGEVQLVQSGAEVKKPGASVKVSCKASGYTFTSYGISWVRQAPGQGLEWMGWISAYNGNTNYAQKLQGRVTMTTDTSTSTAYMELRSLRSDDTAVYYCATIDTASAFDIWGQGTMVTVSSGGCGGGEVAALEKEVAALEKEVAALEKEVAALEK
notes: also called P-CAD 35 EK-DART (CD3-2); parental 35 EK-DART
What is called Kd is the concentration at which binding is half-saturated. For orientation: koff means a measure of how fast the partners let go of each other. One may read the kon as a measure of how fast the partners come together. Regarding B4, the results for the Kd in [4], in experiment [5] and in experiment [8] were 42.8 nM, 35 nM and 43.4 nM, respectively. The EC50 stood at 1.92 nM with Hu P-cadherin-Fc and 24.9 nM in [7]. Besides, the koff in experiment [5] was 0.0215 s⁻¹; in experiment [8], 0.0138 s⁻¹. Moreover, the on-rate (kon) in experiment [5] stood at 614000 M⁻¹ s⁻¹; in [8], 318000 M⁻¹ s⁻¹. In [6], the “T cell Cytotoxicity” value stood at 0.33 nM.

B5: 33 EK-DART (bispecific antibody)
chain 1: QSVLTQPPSVSAAPGQKVTISCSGSSSNIGNNYVSWYQQLPGTAPKLLIYDNNKRPSGIPDRFSGSKSGTSATLGITGLQTGDEADYYCGTWDSSLSAYVFGTGTKVTVLGGGSGGGGEVQLVESGGGLVQPGGSLRLSCAASGFTFNTYAMNWVRQAPGKGLEWVARIRSKYNNYATYYADSVKDRFTISRDDSKNSLYLQMNSLKTEDTAVYYCVRHGNFGNSYVSWFAYWGQGTLVTVSSGGCGGGKVAALKEKVAALKEKVAALKEKVAALKE
chain 2: QAVVTQEPSLTVSPGGTVTLTCRSSTGAVTTSNYANWVQQKPGQAPRGLIGGTNKRAPWTPARFSGSLLGGKAALTITGAQAEDEADYYCALWYSNLWVFGGGTKLTVLGGGGSGGGGQMQLVQSGAEVKKPGASVKVSCKASGYTFTSYGISWVRQAPGQGLEWMGWISAYNGNTNYAQKLQGRVTMTTDTSTSTAYMELRSLRSDDTAVYYCALIGSGVAFDIWGQGTMVTVSSGGCGGGEVAALEKEVAALEKEVAALEKEVAALEK
notes: CD3 VL x P-CAD VH-E-coil); also called P-CAD 33 EK-DART (CD3-2)
As for B5, the 50% effective concentration (EC50) with Hu P-cadherin-Fc was 1.8 nM. This molecule also gave an EC50 in experiment [7] of 60.1 nM. Moreover, in experiment [8], the affinity, expressed as Kd, was 46.4 nM; the koff was 0.0578 s⁻¹; the kon worked out at 1.15e+06 M⁻¹ s⁻¹.

B6: 34 EK-DART (bispecific antibody)
chain 1: QSVVTQPPSVSAAPGQKVTISCSGSSSNIGNNYVSWYQQLPGTAPKLLIYDNNKRPSGIPDRFSGSKSGTSATLGITGLQTGDEADYYCGTWDSSLSAWVFGGGTKLTVLGGGSGGGGEVQLVESGGGLVQPGGSLRLSCAASGFTFNTYAMNWVRQAPGKGLEWVARIRSKYNNYATYYADSVKDRFTISRDDSKNSLYLQMNSLKTEDTAVYYCVRHGNFGNSYVSWFAYWGQGTLVTVSSGGCGGGKVAALKEKVAALKEKVAALKEKVAALKE
chain 2: QAVVTQEPSLTVSPGGTVTLTCRSSTGAVTTSNYANWVQQKPGQAPRGLIGGTNKRAPWTPARFSGSLLGGKAALTITGAQAEDEADYYCALWYSNLWVFGGGTKLTVLGGGGSGGGGEVQLVQSGAEVKKPGASVKVSCKASGYTFTSYGISWVRQAPGQGLEWMGWISAYNGNTNYAQKLQGRVTMTTDTSTSTAYMELRSLRSDDTAVYYCATIDTASAFDIWGQGTMVTVSSGGCGGGEVAALEKEVAALEKEVAALEKEVAALEK
notes: also called P-CAD 34 EK-DART (CD3-2)
On to B6, for which the EC50 with Hu P-cadherin-Fc amounted to 2.85 nM. Further, a half-maximal effect in experiment [7] (EC50) was put at 68 nM. Further, in experiment [8], binding was characterised by a dissociation constant (Kd) of 129 nM, the koff came to 0.0833 s⁻¹ and the kon was 705000 M⁻¹ s⁻¹.

B7: 30 EK-DART (bispecific antibody)
chain 1: DIVMTQSPLSLPVTLGQPASISCRSSQSLVHSDGNTYLHWFQQRPGQSPRRLIYKVSNRDSGVPDRFSGSGSGTDFTLKISRVEAEDVGVYYCMQGTHWPPLFGQGTKVEIKGGGSGGGGEVQLVESGGGLVQPGGSLRLSCAASGFTFNTYAMNWVRQAPGKGLEWVARIRSKYNNYATYYADSVKDRFTISRDDSKNSLYLQMNSLKTEDTAVYYCVRHGNFGNSYVSWFAYWGQGTLVTVSSGGCGGGKVAALKEKVAALKEKVAALKEKVAALKE
chain 2: QAVVTQEPSLTVSPGGTVTLTCRSSTGAVTTSNYANWVQQKPGQAPRGLIGGTNKRAPWTPARFSGSLLGGKAALTITGAQAEDEADYYCALWYSNLWVFGGGTKLTVLGGGGSGGGGEVQLVESGGGVVQPGRSLRLSCAASGFTFSSYGMHWVRQAPGKGLEWVAVISYDGSNKYYADSVKGRFTISRDNSKNTLYLQMNSLRAEDTAVYYCAKSSSDRTFDYWGQGTLVTVSSGGCGGGEVAALEKEVAALEKEVAALEKEVAALEK
notes: also called P-CAD 30 EK-DART (CD3-2)
For the molecule B7, the EC50 with Hu P-cadherin-Fc worked out at 3.68 nM. The molecule also showed an EC50 in experiment [7] of 142 nM. For the same molecule, in [8], the Kd was found to be 1.37 nM, the koff turned out to be 0.00648 s⁻¹ and the kon turned out to be 4.72e+06 M⁻¹ s⁻¹.

B8: 20 EK-DART (bispecific antibody)
chain 1: AIQMTQSPSSLSASVGDRVTITCRASQSIGKYLNWYQQIPGKAPKLLIYTASTLQTGVPSRFSGSGSGTDFTLTIVSLQPEDFATYYCQQSFNTPRTFGQGTKVEIKGGGSGGGGEVQLVESGGGLVQPGGSLRLSCAASGFTFNTYAMNWVRQAPGKGLEWVARIRSKYNNYATYYADSVKDRFTISRDDSKNSLYLQMNSLKTEDTAVYYCVRHGNFGNSYVSWFAYWGQGTLVTVSSGGCGGGKVAALKEKVAALKEKVAALKEKVAALKE
chain 2: QAVVTQEPSLTVSPGGTVTLTCRSSTGAVTTSNYANWVQQKPGQAPRGLIGGTNKRAPWTPARFSGSLLGGKAALTITGAQAEDEADYYCALWYSNLWVFGGGTKLTVLGGGGSGGGGEVQLVQSGAEVKKPGASVKVSCKASGYTFTGYYMHWVRQAPGQGLEWMGRINPNSGGTNYAQKFQGRVTMTRDTSISTAYMELSRLRSDDTAVYYCAKGSGSGAFDIWGQGTMVTVSSGGCGGGEVAALEKEVAALEKEVAALEKEVAALEK
notes: also called P-CAD 20 EK-DART (CD3-2)
Regarding B8, a half-maximal response with Hu P-cadherin-Fc (EC50) required 12.3 nM. The molecule also had an EC50 in experiment [7] of about 115 nM. Besides, in experiment [8], binding was characterised by a dissociation constant (Kd) of 2.03 nM, the koff came out at 0.00704 s⁻¹ and the kon worked out at 3.46e+06 M⁻¹ s⁻¹.
